Test [1] deals with T1, mouse Jagged1-His (extracellular domain of mouse Jagged1, aa 1-1060, with histidine tag) (mouse, UniProt Q9QXX0 34-1060).
T1 construct: made in insect cells; also called mJag1; Mouse Jagged 1 ECD His-tagged
Briefly: SPR, Biacore 2000; Jagged protein amine-coupled to CM5 chip, antibody injected 100-1.0 nM, global fit. As for the experimental part:
(§1) The KDs of 64M51, 64R7 and 64R1B antibodies were determined using a Biacore 2000 system from Biacore Lifescience (GE Healthcare). Recombinant Jagged proteins human Jagged1-Fc (hJag1), mouse Jagged1-His (mJag1), human Jagged2-Fc (hJag2) and mouse Jagged2-Fc (mJag2) were immobilized on a CM5 chip using standard amine-based chemistry (NHS/EDC). Antibodies were serially diluted in 2-fold increments from 100 to 1.0 nM in HBS-P (0.01M HEPES pH7.4, 0.15M NaCl, 0.005% v/v Surfactant P20) and were injected over the chip surface. Kinetic data were collected over time and were fit using the simultaneous global fit equation to yield affinity constants (KD values) for each antibody (Table 3).
A general note: Surface plasmon resonance follows binding to a sensor surface in real time, without labels.

The target of test [2] is T2, mouse Jagged2-Fc (extracellular domain of mouse Jagged2 fused to human Fc) (mouse, UniProt Q9QYE5 24-1082).
T2 construct: extracellular domain; also called mJag2; not shown: human Fc
T2 sequence (Q9QYE5 24-1082): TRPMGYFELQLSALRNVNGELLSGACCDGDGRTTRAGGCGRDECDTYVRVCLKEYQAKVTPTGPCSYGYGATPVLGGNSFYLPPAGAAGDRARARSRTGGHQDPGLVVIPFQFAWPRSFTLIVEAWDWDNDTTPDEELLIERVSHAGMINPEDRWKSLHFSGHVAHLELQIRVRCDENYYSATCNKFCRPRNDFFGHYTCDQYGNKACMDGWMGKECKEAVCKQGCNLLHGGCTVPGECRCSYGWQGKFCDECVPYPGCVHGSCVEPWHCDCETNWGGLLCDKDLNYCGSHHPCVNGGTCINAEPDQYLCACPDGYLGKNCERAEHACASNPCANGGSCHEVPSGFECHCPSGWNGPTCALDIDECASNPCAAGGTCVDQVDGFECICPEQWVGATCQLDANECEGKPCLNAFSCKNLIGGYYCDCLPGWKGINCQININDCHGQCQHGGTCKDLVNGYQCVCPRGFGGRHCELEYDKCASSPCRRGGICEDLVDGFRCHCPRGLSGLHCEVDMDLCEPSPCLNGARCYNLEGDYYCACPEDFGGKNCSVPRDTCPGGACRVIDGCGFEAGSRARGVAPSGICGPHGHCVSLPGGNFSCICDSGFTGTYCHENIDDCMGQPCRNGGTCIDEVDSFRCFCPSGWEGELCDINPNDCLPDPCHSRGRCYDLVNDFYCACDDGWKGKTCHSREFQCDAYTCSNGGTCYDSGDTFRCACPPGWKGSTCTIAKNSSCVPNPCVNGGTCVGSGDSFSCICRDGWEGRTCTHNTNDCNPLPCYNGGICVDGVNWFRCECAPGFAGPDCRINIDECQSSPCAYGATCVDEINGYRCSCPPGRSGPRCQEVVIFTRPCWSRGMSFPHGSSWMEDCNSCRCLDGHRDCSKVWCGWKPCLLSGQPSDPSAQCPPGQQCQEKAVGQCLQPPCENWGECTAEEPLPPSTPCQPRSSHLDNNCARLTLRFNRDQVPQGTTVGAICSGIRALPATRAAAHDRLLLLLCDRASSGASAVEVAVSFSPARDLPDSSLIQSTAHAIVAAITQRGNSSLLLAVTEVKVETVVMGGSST
The description is as above. As for the experimental part:
as §1

In test [3] the target is T3, human Jagged1-Fc (extracellular domain of human Jagged1 fused to human Fc) (human, UniProt P78504 34-1067).
T3 construct: also called hJag1; human Jagged1 ECD-Fc; not shown: human Fc
Described as above. As for the experimental part: as §1

For test [4], the target named is T4, human Jagged2-Fc (extracellular domain of human Jagged2 fused to human Fc) (human, UniProt Q9Y219 27-1080).
T4 construct: also called hJag2; not shown: human Fc
T4 sequence (Q9Y219 27-1080 E501K): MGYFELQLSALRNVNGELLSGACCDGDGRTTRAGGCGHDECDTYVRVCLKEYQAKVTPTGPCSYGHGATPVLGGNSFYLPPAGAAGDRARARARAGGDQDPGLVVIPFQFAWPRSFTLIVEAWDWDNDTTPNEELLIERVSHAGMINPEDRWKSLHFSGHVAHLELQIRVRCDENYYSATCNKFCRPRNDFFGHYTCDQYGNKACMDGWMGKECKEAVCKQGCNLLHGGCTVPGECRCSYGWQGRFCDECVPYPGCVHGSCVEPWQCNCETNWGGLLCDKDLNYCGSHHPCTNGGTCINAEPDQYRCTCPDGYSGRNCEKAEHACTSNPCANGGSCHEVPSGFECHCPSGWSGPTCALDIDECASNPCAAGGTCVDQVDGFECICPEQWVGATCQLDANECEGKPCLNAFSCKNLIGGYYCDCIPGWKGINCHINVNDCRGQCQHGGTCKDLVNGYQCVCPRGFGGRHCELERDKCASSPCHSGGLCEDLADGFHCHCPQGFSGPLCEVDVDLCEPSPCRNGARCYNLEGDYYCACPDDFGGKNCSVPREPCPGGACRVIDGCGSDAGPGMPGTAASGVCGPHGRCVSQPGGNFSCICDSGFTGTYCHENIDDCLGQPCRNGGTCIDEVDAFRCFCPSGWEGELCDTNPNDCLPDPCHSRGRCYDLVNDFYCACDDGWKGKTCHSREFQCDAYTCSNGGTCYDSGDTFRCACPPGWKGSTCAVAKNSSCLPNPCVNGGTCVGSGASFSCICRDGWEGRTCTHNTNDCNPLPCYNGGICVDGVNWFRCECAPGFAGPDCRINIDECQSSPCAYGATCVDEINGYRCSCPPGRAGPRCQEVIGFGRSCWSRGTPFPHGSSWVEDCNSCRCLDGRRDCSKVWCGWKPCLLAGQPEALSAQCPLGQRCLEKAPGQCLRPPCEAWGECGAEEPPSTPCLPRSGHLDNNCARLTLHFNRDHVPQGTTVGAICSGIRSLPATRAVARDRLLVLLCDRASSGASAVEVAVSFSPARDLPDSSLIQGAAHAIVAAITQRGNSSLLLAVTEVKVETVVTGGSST
The description is as above. As for the experimental part:
as §1

Test [5] addresses T5, mouse Jagged2 expressed on HEK293 cells (mouse, UniProt Q9QYE5 24-1247).
T5 construct: whole, on cells
Kind of test: flow cytometry on transfected HEK293 cells. For orientation: A flow cytometer gives signals particle by particle.

Test [6] concerns the target T6, human Jagged2, full-length, expressed on transfected cells (human, UniProt Q9Y219 24-1238).
T6 construct: Full-length cDNA transfected into HEK293 cells (FACS) or PC3 cells (two cell population reporter assay); also called hJagged2; hJag2
Kind of test: flow cytometry on transfected HEK293 cells.

In test [7] the target is T2, mouse Jagged2-Fc (extracellular domain …). Kind of test: SPR, Biacore 2000; Jagged protein on CM5 chip, antibody injected. As for the experimental part:
as §1

Test [8] concerns the target T4, human Jagged2-Fc (extracellular domain …). The description is as above. As for the experimental part:
as §1

Test [9] concerns the target T3, human Jagged1-Fc (extracellular domain …). Briefly: phage display output screened by ELISA on recombinant human Jagged1 ECD-Fc; 64R7 named as one of the Fabs in paragraph 226. As for the experimental part: Phage display was used to identify specific Fabs that bind to the extracellular domain of human Jagged1. 2×10¹³ Fab displaying phage particles from a human Fab phage library were incubated with passively immobilized recombinant human Jagged1 ECD protein fused with a human Fc domain. The non-binding phage were washed off, phage bound to the Jagged1 protein were eluted with 100 mM glycine, […] pH2.2 and the elutant was neutralized with 1/10 volume of 2M Tris base. The eluted output phage were used to infect TG1 F+ bacteria and rescued with helper phage. The output of rescued round one served as the starting point for further selection rounds. The selections were continued to round 3, and then the output was screened in ELISA for Fabs specifically binding to recombinant human Jagged1 ECD-Fc protein. Several Fabs that specifically bound to human Jagged1 were identified.

For test [10] the target is unchanged. Kind of test: SPR, Biacore 2000; Jagged protein amine-coupled to CM5 chip, antibody injected 100-1.0 nM, global fit; Example 13 run (Table 5), compared with 133R0201, 133R0203, 133R0205; separate experiment from Table 3. As for the experimental part:
as §1, with “antibodies 133R0201, 133R0203” for “64M51, 64R7”, “133R0205” for “64R1B antibodies”, “Healthcare) and compared to K, of antibody 64R7. As described above in Example 4, recombinant” for “Healthcare). Recombinant”, “(K,” for “(KD”, “5).” for “3).”

Test [11] has as its target T1, mouse Jagged1-His (extracellular domain …). Kind of test: SPR, Biacore 2000; Jagged protein amine-coupled to CM5 chip, antibody injected 100-1.0 nM, global fit. As for the experimental part:
as §1, with “antibodies 133R0201, 133R0203” for “64M51, 64R7”, “133R0205” for “64R1B antibodies”, “Healthcare) and compared to K, of antibody 64R7. As described above in Example 4, recombinant” for “Healthcare). Recombinant”, “(K,” for “(KD”, “5).” for “3).”
The source holds these as a separate data set.

The target of test [12] is T2, mouse Jagged2-Fc (extracellular domain …). The test is described as above. As for the experimental part: as §1, with “antibodies 133R0201, 133R0203” for “64M51, 64R7”, “133R0205” for “64R1B antibodies”, “Healthcare) and compared to K, of antibody 64R7. As described above in Example 4, recombinant” for “Healthcare). Recombinant”, “(K,” for “(KD”, “5).” for “3).”
This is another data set of the same source.

Test [13] has as its target T4, human Jagged2-Fc (extracellular domain …). The description is as above. As for the experimental part: as §1, with “antibodies 133R0201, 133R0203” for “64M51, 64R7”, “133R0205” for “64R1B antibodies”, “Healthcare) and compared to K, of antibody 64R7. As described above in Example 4, recombinant” for “Healthcare). Recombinant”, “(K,” for “(KD”, “5).” for “3).”
This is another data set of the same source.

In test [14] the target is T3, human Jagged1-Fc (extracellular domain …). Described as above. As for the experimental part: as §1, with “antibodies 133R0201, 133R0203” for “64M51, 64R7”, “133R0205” for “64R1B antibodies”, “Healthcare) and compared to K, of antibody 64R7. As described above in Example 4, recombinant” for “Healthcare). Recombinant”, “(K,” for “(KD”, “5).” for “3).”
This is another data set of the same source.

Like-named read-outs stand apart in the source and are kept apart here.

A word on the Kd: it is the equilibrium constant for the complex coming apart. The low end stands for higher affinity, the high end for lower affinity.

T5 sequence (Q9QYE5 24-1247): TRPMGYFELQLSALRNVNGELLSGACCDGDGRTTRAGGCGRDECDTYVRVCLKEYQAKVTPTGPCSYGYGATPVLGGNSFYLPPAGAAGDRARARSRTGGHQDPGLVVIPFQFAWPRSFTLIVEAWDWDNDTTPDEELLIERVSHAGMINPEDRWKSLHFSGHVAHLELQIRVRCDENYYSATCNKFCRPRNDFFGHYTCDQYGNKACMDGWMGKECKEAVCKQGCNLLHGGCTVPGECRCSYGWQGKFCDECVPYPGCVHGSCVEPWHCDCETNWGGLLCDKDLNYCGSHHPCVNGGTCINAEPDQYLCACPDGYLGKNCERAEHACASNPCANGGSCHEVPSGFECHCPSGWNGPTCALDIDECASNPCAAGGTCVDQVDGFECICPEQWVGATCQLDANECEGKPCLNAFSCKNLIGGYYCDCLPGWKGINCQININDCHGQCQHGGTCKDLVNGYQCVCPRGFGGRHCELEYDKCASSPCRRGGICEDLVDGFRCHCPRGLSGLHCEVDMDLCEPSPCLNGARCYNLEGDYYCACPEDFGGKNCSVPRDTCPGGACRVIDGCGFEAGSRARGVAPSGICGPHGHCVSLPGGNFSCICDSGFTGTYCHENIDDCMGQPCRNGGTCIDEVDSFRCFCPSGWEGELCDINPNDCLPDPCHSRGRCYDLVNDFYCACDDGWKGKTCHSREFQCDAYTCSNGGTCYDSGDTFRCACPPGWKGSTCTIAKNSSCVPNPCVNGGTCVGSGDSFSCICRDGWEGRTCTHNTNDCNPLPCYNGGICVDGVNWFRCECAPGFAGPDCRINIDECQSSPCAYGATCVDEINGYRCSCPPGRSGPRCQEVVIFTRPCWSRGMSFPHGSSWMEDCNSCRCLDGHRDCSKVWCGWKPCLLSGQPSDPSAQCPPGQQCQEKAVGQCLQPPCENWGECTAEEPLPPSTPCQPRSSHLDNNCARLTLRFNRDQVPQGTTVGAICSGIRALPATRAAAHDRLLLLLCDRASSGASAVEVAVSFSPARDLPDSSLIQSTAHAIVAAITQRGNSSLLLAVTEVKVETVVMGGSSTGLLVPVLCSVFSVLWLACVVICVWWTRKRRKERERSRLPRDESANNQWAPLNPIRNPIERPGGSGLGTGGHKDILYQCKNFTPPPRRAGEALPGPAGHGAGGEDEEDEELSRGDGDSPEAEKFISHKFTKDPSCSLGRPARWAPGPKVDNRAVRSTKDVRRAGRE
T6 sequence (Q9Y219 24-1238 E501K limits assumed): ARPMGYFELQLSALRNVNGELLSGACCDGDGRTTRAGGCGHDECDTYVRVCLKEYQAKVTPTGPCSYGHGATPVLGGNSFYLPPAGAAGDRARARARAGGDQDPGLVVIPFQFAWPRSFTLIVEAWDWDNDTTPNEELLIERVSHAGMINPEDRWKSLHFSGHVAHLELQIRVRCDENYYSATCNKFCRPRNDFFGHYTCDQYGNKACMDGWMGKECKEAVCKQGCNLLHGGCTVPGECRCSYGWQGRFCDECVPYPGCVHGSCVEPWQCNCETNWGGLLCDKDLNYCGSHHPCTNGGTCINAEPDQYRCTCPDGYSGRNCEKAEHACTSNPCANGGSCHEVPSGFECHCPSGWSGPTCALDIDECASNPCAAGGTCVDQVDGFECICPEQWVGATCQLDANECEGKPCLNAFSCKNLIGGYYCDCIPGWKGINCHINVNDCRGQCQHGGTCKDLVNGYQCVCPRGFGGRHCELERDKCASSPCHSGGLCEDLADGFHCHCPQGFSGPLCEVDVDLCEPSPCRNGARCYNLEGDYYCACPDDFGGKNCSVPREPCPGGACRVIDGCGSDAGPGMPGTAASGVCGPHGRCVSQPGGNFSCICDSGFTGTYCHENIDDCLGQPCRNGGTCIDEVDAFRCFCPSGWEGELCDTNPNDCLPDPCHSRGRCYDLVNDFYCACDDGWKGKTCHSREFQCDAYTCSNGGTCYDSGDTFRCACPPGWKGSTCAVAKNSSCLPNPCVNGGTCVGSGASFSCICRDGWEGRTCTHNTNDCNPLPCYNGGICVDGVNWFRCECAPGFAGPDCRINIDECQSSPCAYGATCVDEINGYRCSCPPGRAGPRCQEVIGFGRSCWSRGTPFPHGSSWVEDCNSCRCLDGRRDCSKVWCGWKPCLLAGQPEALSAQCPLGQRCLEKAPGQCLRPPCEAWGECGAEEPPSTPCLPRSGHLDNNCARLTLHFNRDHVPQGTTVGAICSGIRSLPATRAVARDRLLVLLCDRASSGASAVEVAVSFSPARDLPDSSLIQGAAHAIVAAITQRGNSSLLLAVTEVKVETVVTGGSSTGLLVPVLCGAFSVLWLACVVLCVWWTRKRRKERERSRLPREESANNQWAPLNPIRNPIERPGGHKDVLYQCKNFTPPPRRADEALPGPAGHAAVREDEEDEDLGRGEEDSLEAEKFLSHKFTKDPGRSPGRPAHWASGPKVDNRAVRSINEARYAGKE

B1: antibody 64M51 (antibody, mouse IgG1, kappa, V domains shown)
VH: QVQLKQSGAELVRPGTSVKLSCKTSGYIFTSYWIHWVKQRSGQGLEWIARIYPGIGSTYYNEKFKDKATLTADKSSSTAYMQLSSLKSEDSAVYFCAKNGGFFDYWGQGTTLTVSS
VL: DIVLTQSPASLAVSLGQRATISCRASESVDSYGNSFMHWYQQKPGQPPKLLIYRASNLESGIPARFSGSGSRTDFTLTINPVEADDVATYYCQQSNEDPWTFGGGTKLEIKR
notes: Mouse hybridoma monoclonal raised against mouse Jagged1 ECD-His; also called anti-Jagged 64M51; ATCC PTA-10468
For the molecule B1, the equilibrium dissociation constant (Kd) in test [1] came out at 33 nM; in test [2], 7.9 nM; in [3] it was 30 nM; in [4], 6.2 nM.

B2: 64R1B IgG2 antibody (antibody, V domains shown)
VH: QVQLQESGPGLVKPSGTLSLTCTVSGDSISSSNWWSWVRQPPGQGLEWIGEIFHGENTNYNPSLKSRVTISVDKSKNQISLNLTSATAADTAVYYCARNPGIGAAKFDSWGQGTLVTVSS
VL: DIVMTQTPLSLSVTPGQPASISCKSSQSLLHSDGKTYLYWYLQKPGQPPQLLIYEVSNRFSGVPDRFSGSGSGTDFTLKISRVEAEDVGVYYCMQHIDFPFTFGQGTKLEIKR
notes: Human IgG2 / kappa, expressed in CHO cells; also called antibody 64R1B; ATCC PTA-10469
For B2, the dissociation constant Kd in test [1] is 0.82 nM; in test [3], 0.61 nM. For the same molecule, the binding result is listed as “no binding (tested: 10 µg/ml)” in test [5], “no binding (tested: 10 µg/ml)” in test [6], “no binding (tested: No binding detected at 100 nM)” in [7] and “no binding (tested: No binding detected at 100 nM)” in test [8].

B3: Fab 64R7 (Fab, V domains shown)
VH: QVQLVESGGGVVQPGRSLRLSCAASGFTFSSYAMHWVRQAPGKGLEWVAVISYDGSNKYYADSVKGRFTISRDNSKNTLYLQMNSLRAEDTAVYYCARDKYDIPDAFDIWGQGTLVTVSS
VL: DIRMTQSPSSLSASVGDRVTITCRASQGISNDLAWYQQKPGKVPRLLIYATSTLQSGVPSRFSGSGSATDFTLTISSLQPEDVATYYCQQSYNAPITFGQGTRLEIK
notes: Fab from a human Fab phage library; also called 64R7 Fab
Turning to B3, the binding result in [9] is given as “binds”.

B4: 64R7 IgG2 antibody (antibody, V domains shown)
VH: QVQLVESGGGVVQPGRSLRLSCAASGFTFSSYAMHWVRQAPGKGLEWVAVISYDGSNKYYADSVKGRFTISRDNSKNTLYLQMNSLRAEDTAVYYCARDKYDIPDAFDIWGQGTLVTVSS
VL: DIRMTQSPSSLSASVGDRVTITCRASQGISNDLAWYQQKPGKVPRLLIYATSTLQSGVPSRFSGSGSATDFTLTISSLQPEDVATYYCQQSYNAPITFGQGTRLEIKR
notes: Human IgG2 / kappa, expressed in CHO cells; also called antibody 64R7; ATCC PTA-10470
As to B4, the equilibrium dissociation constant (Kd) in test [1] is 10.5 nM; in test [2], 20.6 nM; in test [3], 5.9 nM; in [4] it was 8.3 nM; in test [10], 1.7 nM; in [11] it was 4.8 nM. Also, the dissociation constant Kd in test [12] stood at 9.6 nM; in test [13], 10 nM.

B5: antibody 133R0201 (antibody, V domains shown)
VH: QVQLVESGGGVVQPGRSLRLSCAASGFTFSSYAMHWVRQAPGKGLEWVAAIYPDSSNKYYADSVKGRFTISRDNSKNTLYLQMNSLRAEDTAVYYCARDKYDIPDAFDIWGQGTLVTVS
VL: DIRMTQSPSSLSASVGDRVTITCRASQGISNDLAWYQQKPGKVPRLLIYATSTLQSGVPSRFSGSGSATDFTLTISSLQPEDVATYYCQQSYNAPITFGQGTRLEIK
Turning to B5, the Kd in test [11] was 0.8 nM; in test [12], 3.2 nM; in [14] it was 0.76 nM; in [13], 2.9 nM.

B6: antibody 133R0203 (antibody, V domains shown)
VH: QVQLVESGGGVVQPGRSLRLSCAASGFTFSSYAMHWVRQAPGKGLEWVAAISPEASNKYYADSVKGRFTISRDNSKNTLYLQMNSLRAEDTAVYYCARDKYDIPDAFDIWGQGTLVTVS
VL: DIRMTQSPSSLSASVGDRVTITCRASQGISNDLAWYQQKPGKVPRLLIYATSTLQSGVPSRFSGSGSATDFTLTISSLQPEDVATYYCQQSYNAPITFGQGTRLEIK
In the case of B6, the Kd in [11] was determined as 1.6 nM; in test [12], 3.8 nM; in [14], 1.4 nM; in test [13] it was 3.7 nM.

B7: antibody 133R0205 (antibody, V domains shown)
VH: QVQLVESGGGVVQPGRSLRLSCAASGFTFSSYAMHWVRQAPGKGLEWVAAIYPASSNKYYADSVKGRFTISRDNSKNTLYLQMNSLRAEDTAVYYCARDKYDIPDAFDIWGQGTLVTVS
VL: DIRMTQSPSSLSASVGDRVTITCRASQGISNDLAWYQQKPGKVPRLLIYATSTLQSGVPSRFSGSGSATDFTLTISSLQPEDVATYYCQQSYNAPITFGQGTRLEIK
With B7, the Kd in [11] is 1.5 nM; in [12] it was 4.8 nM; in test [14], 1.2 nM; in [13], 5.8 nM.
